B1: Sp Dcp1(1-127) (natural protein, fission yeast (Sp), UniProt Q9P805 1-127, looked up)
chain: MEDENILRNAVNLQVLKFHYPEIESIIDIASHVAVYQFDVGSQKWLKTSIEGTFFLVKDQRARVGYVILNRNSPENLYLFINHPSNVHLVDRYLIHRTENQHVVGLWMFDPNDMSRIFNIVKESLLR

Test [1] deals with T1, Sp Dcp2(1-243), as part of the single chain (fission yeast (Sp), UniProt O13828 1-243).
T1 sequence (looked up): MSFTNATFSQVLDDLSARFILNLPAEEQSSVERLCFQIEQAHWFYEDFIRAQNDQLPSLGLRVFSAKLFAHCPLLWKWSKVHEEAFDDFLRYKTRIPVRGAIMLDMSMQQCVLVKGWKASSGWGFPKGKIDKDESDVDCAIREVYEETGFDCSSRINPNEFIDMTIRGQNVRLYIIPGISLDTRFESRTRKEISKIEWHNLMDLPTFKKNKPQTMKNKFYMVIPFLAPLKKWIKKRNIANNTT
The test can be described thus: crystal structure.

For test [2], the target named is B1. The test can be described thus: crystal structure.

For the molecule B1, the binding result in test [1] is listed as “binds”.

B2: Hs PNRC2(91-121) (domain or fragment)
chain: not shown
Consider B2, for which the binding result in test [2] is recorded as “binds”.

For the origin of these results see paper PMC5113729 (Nature structural & molecular biology, 2016).
